To fix the notation:
B1: DCAF4 (parent)
chain: DSHILLCLMGLAETPGCATLLPAS
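Further: lentivirally expressed fusions sorted by FACS into six bins by GFP to DsRed ratio, PSI derived from sequencing read proportions per bin multiplied by bin number.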

In this series the parent is B1. Put plainly: protein stability index of a GFP-peptide fusion (GPS, HEK-293T) (PSI 1-6); higher = more stable. The settings on record: c terminus: a fixed tail appended.
DSHILLCLMGAAETPGCATLLPAS [L11A]: the protein stability index was determined as 2.08. With DSHILLCLMGWAETPGCATLLPAS [L11W] the figure was 1.8. As to DSHILLCLMGRAETPGCATLLPAS [L11R], the protein stability index was 2.05. With DSHILLCLMGVAETPGCATLLPAS [L11V] the figure was 2.65; with DSHILLCLMGNAETPGCATLLPAS [L11N], 1.27; with DSHILLCLMGFAETPGCATLLPAS [L11F], 2.98. Turning to DSHILLCLMGKAETPGCATLLPAS [L11K], the protein stability index turned out to be 1.71. DSHILLCLMGEAETPGCATLLPAS [L11E]: the protein stability index was 1.3. With DSHILLCLMGPAETPGCATLLPAS [L11P] the figure was 2.59; with DSHILLCLMGIAETPGCATLLPAS [L11I], 1.97; with DSHILLCLMGGAETPGCATLLPAS [L11G], 1.6.

In the case of DSHILLCLMGCAETPGCATLLPAS [L11C], the protein stability index came out at 2.76. The same measure for DSHILLCLMGMAETPGCATLLPAS [L11M]: 2.42; for DSHILLCLMYLAETPGCATLLPAS [G10Y]: 2.37.

For DSHILLCLMGLAETPGCATLTPAS [L21T], the protein stability index stood at 2.04. DSHILLCLMGLAETPGCATLPPAS [L21P]: the protein stability index came to 2.25. On to DSHILLCLMGLAETPGCATLEPAS [L21E], for which the protein stability index was 1.72.

Turning to DSHILLCLMGLAETPGCATLWPAS [L21W], the protein stability index was 2.8. Turning to DSHILLCLMGLAETPGCATLHPAS [L21H], the protein stability index came out at 4.41. With DSHILLCLMGLAETPGCATLDPAS [L21D] the figure was 1.71; with DSHILLCLMGLAETPGCATLFPAS [L21F], 3.52; with DSHILLCLMGLAETPGCATLNPAS [L21N], 3.01. Take DSHILLCLMGLAETPGCATLSPAS [L21S]: the protein stability index is 1.65. The same measure for DSHILLCLMGLAETPGCATLAPAS [L21A]: 3.11.

Turning to DSHILLCLMGLAETPGCATLGPAS [L21G], the protein stability index was 2.21. Turning to DSHILLCLMGLAETPGCATLVPAS [L21V], the protein stability index worked out at 2.17. Consider DSHILLCLMGLAETVGCATLLPAS [P15V], for which the protein stability index came out at 2.59. The same measure for DSHILLCLMGLAETSGCATLLPAS [P15S]: 2.52. On to DSHILLCLMGLAETIGCATLLPAS [P15I], for which the protein stability index stood at 2.35.

Regarding DSHILLCLMGLAETDGCATLLPAS [P15D], the protein stability index came out at 2.56.

Take DSHILLCLMGLAETLGCATLLPAS [P15L]: the protein stability index worked out at 3.33.

On to DSHILLCLMGLAETKGCATLLPAS [P15K], for which the protein stability index is 1.78. Turning to DSHILLCLMGLAETRGCATLLPAS [P15R], the protein stability index is 2.66. DSHILLCLMGLAETNGCATLLPAS [P15N]: the protein stability index worked out at 1.35.

On to DSHILLCLMGLAETYGCATLLPAS [P15Y], for which the protein stability index was 2.44. On to DSHILLCLMGLAETTGCATLLPAS [P15T], for which the protein stability index came to 2.3. Consider DSHILLCLMGLAETFGCATLLPAS [P15F], for which the protein stability index worked out at 3.63. Take DSHILLCLMGLAETMGCATLLPAS [P15M]: the protein stability index is 2.44.

For the variant DSHILLCLMGLAETEGCATLLPAS [P15E], the protein stability index stood at 2.06.

As for DSHILLCLMGLAETCGCATLLPAS [P15C], the protein stability index came out at 2.61. With DSHILLCLMGLAETGGCATLLPAS [P15G] the figure was 2.54; with DSHILLCLMGLAETAGCATLLPAS [P15A], 3.15; with DSHILLCLMGLAETWGCATLLPAS [P15W], 2.46. The same measure for DSHILLCLMGLAETPGCATNLPAS [L20N]: 2.9; for DSHILLCLMGLAETPGCATGLPAS [L20G]: 2.44; for DSHILLCLMGLAETPGCATVLPAS [L20V]: 2.36. For DSHILLCLMGLAETPGCATFLPAS [L20F], the protein stability index worked out at 3.14.

Regarding DSHILLCLMGLAETPGCATHLPAS [L20H], the protein stability index stood at 2.36.

For DSHILLCLMGLAETPGCATILPAS [L20I], the protein stability index worked out at 2.38. Regarding DSHILLCLMGLAETPGCATELPAS [L20E], the protein stability index is 1.9. For the variant DSHILLCLMGLAETPGCATPLPAS [L20P], the protein stability index is 2. The same measure for DSHILLCLMGLAETPGCATTLPAS [L20T]: 2.07; for DSHILLCLMGLAETPGCATCLPAS [L20C]: 2.91. The same measure for DSHILLCLMGLAETPGCATRLPAS [L20R]: 2.34; for DSHILLCLMGLAETPGCATKLPAS [L20K]: 2.4. With DSHILLCLMGLAETPGCATDLPAS [L20D] the figure was 2.36. For DSHILLCLMGLAETPGCATALPAS [L20A], the protein stability index was 3.72. DSHILLCLMGLAETPGCATQLPAS [L20Q]: the protein stability index was 1.93. The same measure for DSHILLCLMGLAETPGCATYLPAS [L20Y]: 3.25.

For the variant DSHILLCLMGLAETPGCATMLPAS [L20M], the protein stability index turned out to be 2.52.

For the variant DSHILLCLMGLAETPGCATSLPAS [L20S], the protein stability index was 2.54.

As to DSHILLCLMGLAETPGIATLLPAS [C17I], the protein stability index is 2.04. Regarding DSHILLCLMGLAETPGFATLLPAS [C17F], the protein stability index turned out to be 2.34. As for DSHILLCLMGLAETPGDATLLPAS [C17D], the protein stability index was 1.47.

DSHILLCLMGLAETPGMATLLPAS [C17M]: the protein stability index was 2.38. The same measure for DSHILLCLMGLAETPGHATLLPAS [C17H]: 2.58; for DSHILLCLMGLAETPGGATLLPAS [C17G]: 3.08; for DSHILLCLMGLAETPGAATLLPAS [C17A]: 2.98. With DSHILLCLMGLAETPGWATLLPAS [C17W] the figure was 2.44.

For the variant DSHILLCLMGLAETPGTATLLPAS [C17T], the protein stability index came out at 3.4. As for DSHILLCLMGLAETPGLATLLPAS [C17L], the protein stability index came out at 2.23.

In the case of DSHILLCLMGLAETPGSATLLPAS [C17S], the protein stability index was 2.81.

Take DSHILLCLMGLAETPGRATLLPAS [C17R]: the protein stability index is 1.78. With DSHILLCLMGLAETPGEATLLPAS [C17E] the figure was 2.63; with DSHILLCLMGLAETPGYATLLPAS [C17Y], 2.55; with DSHILLCLMGLAETPGNATLLPAS [C17N], 1.99. Take DSHILLCLMGLAETPGKATLLPAS [C17K]: the protein stability index turned out to be 1.83. The same measure for DSHILLCLMGLAETPGPATLLPAS [C17P]: 3; for DSHILLCLMGLAETPGCARLLPAS [T19R]: 1.64; for DSHILLCLMGLAETPGCANLLPAS [T19N]: 2.42. Take DSHILLCLMGLAETPGCADLLPAS [T19D]: the protein stability index is 3.26. For the variant DSHILLCLMGLAETPGCALLLPAS [T19L], the protein stability index turned out to be 2.15. With DSHILLCLMGLAETPGCAMLLPAS [T19M] the figure was 3.1; with DSHILLCLMGLAETPGCAILLPAS [T19I], 2.58. With DSHILLCLMGLAETPGCASLLPAS [T19S] the figure was 2.67; with DSHILLCLMGLAETPGCAPLLPAS [T19P], 2.5; with DSHILLCLMGLAETPGCAGLLPAS [T19G], 2.93.

As to DSHILLCLMGLAETPGCAKLLPAS [T19K], the protein stability index is 3.24.

With DSHILLCLMGLAETPGCAELLPAS [T19E], the protein stability index was 3.24. DSHILLCLMGLAETPGCAWLLPAS [T19W]: the protein stability index came out at 2.05. With DSHILLCLMGLAETPGCAQLLPAS [T19Q] the figure was 1.43; with DSHILLCLMGLAETPGCAALLPAS [T19A], 2.22.

Take DSHILLCLMGLAETPGCAFLLPAS [T19F]: the protein stability index turned out to be 3.47. With DSHILLCLMGLAETPGCAYLLPAS [T19Y], the protein stability index is 3.13.

The values above are taken from the supplement of paper PMC10567573.
